This note sets out measurements from patent US20260226125A1 (MEDICENNA THERAPEUTICS, published 2026).

One may read the Kd as the equilibrium constant for the complex coming apart. High values mean a looser complex, low ones a tighter complex.

For test [1], the target named is T1, human CD25 (IL-2Rα) (human, UniProt P01589 22-240, limits assumed).
T1 construct: Receptor reagent used in SPR; also called interleukin 2 receptor alpha
T1 sequence (looked up): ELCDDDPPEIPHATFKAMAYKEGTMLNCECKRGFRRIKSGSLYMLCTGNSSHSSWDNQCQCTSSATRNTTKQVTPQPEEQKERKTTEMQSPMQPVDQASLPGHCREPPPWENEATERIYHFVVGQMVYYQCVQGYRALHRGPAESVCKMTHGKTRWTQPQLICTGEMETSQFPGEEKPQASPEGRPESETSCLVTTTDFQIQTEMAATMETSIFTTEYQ
Put plainly: SPR, drawn table 'Individual Receptor Subunit Binding', column 'Affinity for IL-2Rα Kd (nM)'.

The target in test [2] is T2, human CD122 (IL-2Rβ) (human, UniProt P14784 27-240).
T2 construct: Receptor reagent used in SPR; also called interleukin 2 receptor beta
T2 sequence (looked up): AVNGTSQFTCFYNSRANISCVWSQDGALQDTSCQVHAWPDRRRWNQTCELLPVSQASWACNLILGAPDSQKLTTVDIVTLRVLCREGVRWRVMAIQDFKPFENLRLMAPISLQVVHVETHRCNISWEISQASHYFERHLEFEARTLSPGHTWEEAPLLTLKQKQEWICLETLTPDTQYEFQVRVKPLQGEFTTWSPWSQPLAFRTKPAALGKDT
Put plainly: SPR, drawn table 'Individual Receptor Subunit Binding', column 'Affinity for IL-2Rβ Kd (nM)'. For orientation: SPR reads the build-up and loss of mass on a sensor chip optically.

The target of test [3] is T2, human CD122 (IL-2Rβ). The test can be described thus: SPR; 1:1 binding fit. The procedure:
(§1) Binding interactions between proteins using purified preparations or complex mixtures can be examined quantitatively in their native state and can assess binding specificity, stoichiometry, concentration, thermodynamics, kinetics (association, kₐ, and dissociation, kd, rate constants), and overall affinity (equilibrium dissociation constant, KD=kd/kₐ). Sensor chips (CM5) were activated (420 s at a flow rate of 10 μL/min) and 50 μg/mL of Anti-histidine antibody (in Immobilization buffer 10 mM Sodium Acetate (pH4.5)) was injected (420 s at a flow rate of 10 μL/min). For ligand capturing, samples were diluted to 5 μg/mL (HEPES, with 0.005% Tween-20, ph7.4) and injected (flow rate of 10 μL/min) to reach a capture level of ~200 RU. Receptors were diluted and up to 8 concentrations as indicated and injected (flow rate of 30 μL/min) for an association phase of 120 seconds, followed by 300 seconds dissociation.

For test [4], the target named is T1, human CD25 (IL-2Rα). Put plainly: SPR sensorgram, legend 0.195 to 50 nM. The method, then:
as §1

For test [5], the target named is T1, human CD25 (IL-2Rα). Put plainly: SPR sensorgram, no concentration legend.
The target of test [6] is T2, human CD122 (IL-2Rβ). The test can be described thus: SPR; 1:1 binding fit. This is another data set of the same source.
The target of test [7] is T1, human CD25 (IL-2Rα). Put plainly: SPR; 1:1 binding fit.
Test [8] deals with T1, human CD25 (IL-2Rα). The test can be described thus: SPR; steady state affinity. The method, then:
as §1

The target in test [9] is T3, high affinity IL-2 receptor (human IL-2Rα, IL-2Rβ, IL-2Rγ) on HEK-Blue IL-2 reporter cells (human, UniProt P01589 22-272; P14784 27-551; P31785 23-369).
T3 sequence (looked up) 1: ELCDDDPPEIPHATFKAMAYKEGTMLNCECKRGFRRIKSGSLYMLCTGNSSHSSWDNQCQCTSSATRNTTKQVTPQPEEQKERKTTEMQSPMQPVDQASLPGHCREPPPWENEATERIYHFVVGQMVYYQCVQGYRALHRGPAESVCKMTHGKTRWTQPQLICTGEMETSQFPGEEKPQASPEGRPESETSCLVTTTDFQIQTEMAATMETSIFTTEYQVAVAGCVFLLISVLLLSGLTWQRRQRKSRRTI
T3 sequence (looked up) 2: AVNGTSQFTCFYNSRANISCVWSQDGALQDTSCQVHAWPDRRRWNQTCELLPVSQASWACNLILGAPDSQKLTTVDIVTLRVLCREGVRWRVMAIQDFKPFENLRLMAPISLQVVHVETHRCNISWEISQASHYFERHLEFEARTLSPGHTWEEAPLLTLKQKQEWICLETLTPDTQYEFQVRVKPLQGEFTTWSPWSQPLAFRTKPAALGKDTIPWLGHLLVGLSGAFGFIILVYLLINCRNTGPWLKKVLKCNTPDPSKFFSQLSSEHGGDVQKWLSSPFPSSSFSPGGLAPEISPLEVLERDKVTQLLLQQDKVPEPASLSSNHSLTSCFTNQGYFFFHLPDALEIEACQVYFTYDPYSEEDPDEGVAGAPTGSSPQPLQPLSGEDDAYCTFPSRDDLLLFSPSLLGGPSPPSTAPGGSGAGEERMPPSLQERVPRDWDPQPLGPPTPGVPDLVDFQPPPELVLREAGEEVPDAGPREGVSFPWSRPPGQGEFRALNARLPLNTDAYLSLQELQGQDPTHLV
T3 sequence (looked up) 3: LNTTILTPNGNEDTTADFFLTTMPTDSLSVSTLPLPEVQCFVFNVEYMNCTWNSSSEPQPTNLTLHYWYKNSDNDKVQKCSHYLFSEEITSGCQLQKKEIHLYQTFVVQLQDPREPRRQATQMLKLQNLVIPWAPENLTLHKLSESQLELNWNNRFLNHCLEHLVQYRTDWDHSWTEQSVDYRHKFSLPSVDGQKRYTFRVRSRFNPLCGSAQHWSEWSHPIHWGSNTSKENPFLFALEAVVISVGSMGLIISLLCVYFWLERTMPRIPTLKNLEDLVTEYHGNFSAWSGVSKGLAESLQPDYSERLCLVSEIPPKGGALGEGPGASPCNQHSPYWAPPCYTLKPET
The test can be described thus: cell-based or functional assay.

The target of test [10] is T1, human CD25 (IL-2Rα). The test can be described thus: SPR; steady state affinity. The source holds these as a separate data set.
Test [11] deals with T4, γc (CD132, IL-2Rγ, common gamma chain) (human, UniProt P31785 23-369).
T4 sequence (looked up): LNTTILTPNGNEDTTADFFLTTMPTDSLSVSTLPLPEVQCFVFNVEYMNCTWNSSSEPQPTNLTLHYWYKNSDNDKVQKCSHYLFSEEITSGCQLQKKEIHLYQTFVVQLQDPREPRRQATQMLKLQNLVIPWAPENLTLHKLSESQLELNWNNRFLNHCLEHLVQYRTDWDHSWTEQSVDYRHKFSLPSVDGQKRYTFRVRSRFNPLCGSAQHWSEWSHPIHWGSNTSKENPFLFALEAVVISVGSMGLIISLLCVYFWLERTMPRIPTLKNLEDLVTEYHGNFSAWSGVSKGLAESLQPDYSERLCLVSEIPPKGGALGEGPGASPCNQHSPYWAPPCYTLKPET
The test can be described thus: cell-based or functional assay.

Test [12] deals with T1, human CD25 (IL-2Rα). The test can be described thus: SPR sensorgram, series 62.5 to 1.953 nM. The method, then: as §1
Test [13] concerns the target T4, γc (CD132, IL-2Rγ, common gamma chain). Put plainly: cell-based or functional assay. This is another data set of the same source.

Consider MDNA109-Fc (Fc fusion), for which the Kd with human CD25 (IL-2Rα) [1] turned out to be 14 nM; with human CD122 (IL-2Rβ) [2] it was 2.7 nM.

B1: MDNA209FA-Fc (2:1) (Fc fusion)
chain: APTSSSTKKTQLQLEHLRLDLEMILNGINNYKNPKLTRMLTAKFYMPKKATELKHLQCLEEELKPLEEVLNLAQSKNFHFDPRDVVSNINVFVLELKGSETTFMCEYADETATIVEFLNRWITFCTSIIRTLT
notes: MDNA209 plus F42A, fused to Fc; also called TP40451F; not shown: linker (if any) and Fc region
In the test with human CD122 (IL-2Rβ) [3], B1 showed a Kd of 5.51 nM. For the same molecule, in the test with human CD25 (IL-2Rα) [4], the binding result is “no binding (tested: 50 nM)”.

B2: MDNA209FEAA (free) (ligand)
chain: APTSSSTKKTQLQLEHLRLDLEMILNGINNYKNPKLTRMLTAKFYMPKKATELKHLQCLEEALKPLEEVLNLAQSKNFHFDPRDVVSNINVFVLELKGSETTFMCEYADETATIVEFLNRWITFCTSIIRTLT
Turning to B2, the binding result with human CD25 (IL-2Rα) [5] is listed as “no binding”. In addition, in the test with human CD122 (IL-2Rβ) [6], the Kd was determined as 1.59 nM.

B3: MDNA209(3)-Fc (Fc fusion)
chain: APTSSSTKKTQLQLEHLRLDLEMILNGINNYKNPKLTRMLTFKFYMPKKATELKHLQCLEEELKPLEEVLNLAQSKNFHFDPRDVVSNINVFVLELKGSETTFMCEYADETATIVEFLNRWITFCTSIISTLT
notes: MDNA209(3) (L18R, Q22E, L80F, R81D, L85V, I86V, I92F, Q126T) fused to Fc, made in CHO; not shown: linker (if any) and Fc region
Regarding B3, the Kd in the test with human CD25 (IL-2Rα) [7] turned out to be 35.8 nM; with human CD122 (IL-2Rβ) [6], 3.25 nM.

B4: MDNA209-Fc (2:1) (Fc fusion)
chain: APTSSSTKKTQLQLEHLRLDLEMILNGINNYKNPKLTRMLTFKFYMPKKATELKHLQCLEEELKPLEEVLNLAQSKNFHFDPRDVVSNINVFVLELKGSETTFMCEYADETATIVEFLNRWITFCTSIIRTLT
notes: IL-2 mutein MDNA209 (L18R, Q22E, L80F, R81D, L85V, I86V, I92F, Q126T, S130R) fused to Fc; (2:1) read as two muteins per Fc dimer; order from the name; also called MDNA209 (2:1) Fc; Construct #8; not shown: linker (if any) and Fc region
In the test with human CD122 (IL-2Rβ) [3], B4 had a Kd of 3.91 nM. This molecule yielded a Kd with human CD25 (IL-2Rα) [8] of 39.1 nM. Besides, in [9], the “Fold against IL-2-Fc alone, HEK-Blue IL-2 reporter assay, antagonist format” value turned out to be 15.1 fold and the “fold decrease in Fold against hIL-2, HEK-Blue IL-2 reporter assay, fixed agonist format” value turned out to be 210 fold.

B5: MDNA209 (free) (ligand)
chain: APTSSSTKKTQLQLEHLRLDLEMILNGINNYKNPKLTRMLTFKFYMPKKATELKHLQCLEEELKPLEEVLNLAQSKNFHFDPRDVVSNINVFVLELKGSETTFMCEYADETATIVEFLNRWITFCTSIIRTLT
Regarding B5, the values for the dissociation constant Kd with human CD25 (IL-2Rα) [7] and with human CD122 (IL-2Rβ) [6] were 31.3 nM and 0.537 nM, respectively.

B6: MDNA209FEY-Fc (2:1) (Fc fusion)
chain: APTSSSTKKTQLQLEHLRLDLEMILNGINNYKNPKLTRMLTAKFAMPKKATELKHLQCLEEELKPLEEVLNLAQSKNFHFDPRDVVSNINVFVLELKGSETTFMCEYADETATIVEFLNRWITFCTSIIRTLT
notes: MDNA209 plus F42A, Y45A, fused to Fc; also called TP40452F; not shown: linker (if any) and Fc region
B6 had a Kd with human CD122 (IL-2Rβ) [3] of 4.99 nM. For the same molecule, the binding result with human CD25 (IL-2Rα) [4] is listed as “no binding (tested: 50 nM)”.

B7: MDNA209(3)FA-Fc (Fc fusion)
chain: APTSSSTKKTQLQLEHLRLDLEMILNGINNYKNPKLTRMLTAKFYMPKKATELKHLQCLEEELKPLEEVLNLAQSKNFHFDPRDVVSNINVFVLELKGSETTFMCEYADETATIVEFLNRWITFCTSIISTLT
notes: MDNA209(3) plus F42A fused to Fc, made in CHO; not shown: linker (if any) and Fc region
As for B7, the Kd stood at 4610 nM with human CD25 (IL-2Rα) [10] and 3.79 nM with human CD122 (IL-2Rβ) [6].

B8: MDNA209FEAA-Fc (2:1) (Fc fusion)
chain: APTSSSTKKTQLQLEHLRLDLEMILNGINNYKNPKLTRMLTAKFYMPKKATELKHLQCLEEALKPLEEVLNLAQSKNFHFDPRDVVSNINVFVLELKGSETTFMCEYADETATIVEFLNRWITFCTSIIRTLT
notes: MDNA209 plus F42A, E62A, fused to Fc; also called MDN209FEAA-Fc; TP36871F; not shown: linker (if any) and Fc region
For the molecule B8, in the test with human CD122 (IL-2Rβ) [3], the Kd is 4.94 nM. Also, in [11], the “EC50 (agonist activity), HEK-Blue IL-2 reporter assay” value was over 107 nM and the “Fold against hIL-2 (agonist activity), HEK-Blue IL-2 reporter assay” value is about 2800 fold. Moreover, the binding result in the test with human CD25 (IL-2Rα) [12] is given as “no binding (tested: 62.5 nM)”.

B9: MDNA209(3)FEAA-Fc (2:1) (Fc fusion)
chain: APTSSSTKKTQLQLEHLRLDLEMILNGINNYKNPKLTRMLTAKFYMPKKATELKHLQCLEEALKPLEEVLNLAQSKNFHFDPRDVVSNINVFVLELKGSETTFMCEYADETATIVEFLNRWITFCTSIISTLT
notes: MDNA209(3) (no S130R) plus F42A, E62A, fused to Fc; also called TP36872F; not shown: linker (if any) and Fc region
For B9, in the test with human CD122 (IL-2Rβ) [3], the affinity, expressed as Kd, was 3.75 nM. For the same molecule, the “fold decrease in agonist activity, HEK-Blue IL-2 reporter assay” value in test [13] was about 60 fold. The binding result with human CD25 (IL-2Rα) [12] is reported as “no binding (tested: 62.5 nM)”.

B10: MDNA209FEAA-Fc-A11 (2:1:2) (Fc fusion)
chain: APTSSSTKKTQLQLEHLRLDLEMILNGINNYKNPKLTRMLTAKFYMPKKATELKHLQCLEEALKPLEEVLNLAQSKNFHFDPRDVVSNINVFVLELKGSETTFMCEYADETATIVEFLNRWITFCTSIIRTLT
notes: Bispecific format: IL-2 antagonist mutein with FEAA, Fc, and IL-13 mutein A11; also called Construct #10; not shown: linker (if any), Fc, linker and IL-13 mutein A11
For the molecule B10, the Kd with human CD122 (IL-2Rβ) [3] was found to be 4.59 nM. The binding result with human CD25 (IL-2Rα) [12] is listed as “no binding (tested: 62.5 nM)”.
